Measurements: paper PMC12591191, “SIRT6 Lysine‐Demyristoylates ATF2 to Ameliorate Vascular Injury via PRKCD/VE‐Cadherin Pathway Regulating Vascular Endothelial Barrier” (Advanced Science, 2025)
Like-named read-outs stand apart in the source and are kept apart here. Where a SMILES comes first, the peptide text is derived from it. The star is where a group is joined. Biotin = O=C1N[C@H]2[C@H](CS[C@H]2CCCCC(=O)*)N1; Myristoyl = CCCCCCCCCCCCCC(=O)*

Key:
[1] = system: SIRT6; conditions: SIRT6 inhibitor, cited from earlier work
Text: Table 2 The inhibitors of SIRT6 were represented with structure, IC50, category, company, indications, and reference. | column: IC50

[2] = target: T1, SIRT6 (Homo sapiens, UniProt Q8N6T7); assay: Biolayer interferometry, SIRT6; format: binding; conditions: BLI, PBS-T, cofactor 5 mM
T1 construct: the full‐length human SIRT6 (1‐355aa) with the flag tag at the C‐terminus; His-tag (N); made in house; host or cells: E. coli ArcticExpress (DE3), pET28a
Text: (§1) The plasmid pUC57‐SIRT6 contained the full‐length human SIRT6 (1‐355aa) with the flag tag at the C‐terminus. The PCR fragment SIRT6‐Flag from pUC57‐SIRT6 was inserted into pET28a vector to obtain the plasmid pET28a‐SIRT6. Then the pET28a‐SIRT6G60A, pET28a‐SIRT6R65A, pET28a‐SIRT6S56Y, and pET28a‐SIRT6H133Y expression plasmids were obtained through site‐directed mutagenesis by PCR. These SIRT6 expression plasmids were used for SIRT6 expression and purification in E.coli.
(§2) The expression plasmids were transformed in the E.coli Arctic Express (DE3) cells, respectively. The E.coli cells were cultured at 37 °C in 2X YT culture medium. When OD600 reached 0.8, cells were induced by 0.2 mM isopropyl‐1‐thio‐β‐D‐galactopyranoside (IPTG) for 18–20 h at 16 °C. Then, cells were harvested by centrifugation at 6000 rpm for 10min at 4 °C and resuspended in lysis buffer (20 mM Tris‐HCl pH 7.2, 500 mM NaCl, 2% glycerol). Cells were lysed by a high‐pressure homogenizer (Avestin), and centrifuged at 15 000 rpm for room temperature min at 4 °C. […]
(§3) To determinate the affinity of SIRT6 proteins to myristoylated peptides, BLI assays were performed in 96 well plates using an Octet Red96 System. […] Meanwhile, the protein‐peptide affinities were also determined after adding several cofactors (5 mM), such as Mg^2+, Zn^2+, ATP, ADP, AMP, cAMP, NAD^+.

[3] = target: T2, SIRT6 G60A (Homo sapiens, UniProt Q8N6T7, G60A); assay: Biolayer interferometry, G60A mutant; format: binding; conditions: BLI, Octet Red96, PBS-T, 120 µM biotin peptide on sensor, analyte G60A 0.18 to 5.5 µM
T2 construct: the full‐length human SIRT6 (1‐355aa) with the flag tag at the C‐terminus; made in house; host or cells: E. coli ArcticExpress (DE3), pET28a
Text: as §1, §2, §3

[4] = system: aortic endothelium (VE-Cadherin junction continuity); assay: En face VE-Cadherin staining of descending aortas; format: in vivo, mouse
Method: Endothelial specific Sirt6 KO (ecSirt6^−/− ) mice (on a C57/Bl6J background) were developed by Cyagen Biosciences lnc. and litter of wild‐type (WT) mice served as control. Genotyping by tail preparation and PCR were performed at 2 weeks of age. All animal procedures were conducted under animal welfare guidelines and were approved by the Animal Ethics Committee of Zhongshan Hospital, Fudan University (EARIA‐389).
The cultivation and collection of mice were described above. Remove the outer membrane and longitudinally cut the thoracic aorta of mice for surface staining. After being fixed in 4% paraformaldehyde for 20 min, 0.5% Triton X‐100 was infiltrated into PBS for 30 min, and 10% normal goat serum was blocked in PBS for 1 h. Then, the corresponding primary antibody was incubated overnight at 4 °C. Then, wash HUVECs or tissues three times with PBS, coupled with the corresponding Alexa Fluor 488‐conjugated goat anti‐rabbit IgG (Thermo, cat#A‐11008) or Alexa Fluor 594 ‐conjugated goat anti‐mouse IgG (Thermo, cat#A‐11 005) (1:500; at room temperature, place in a closed solution for 1 h). Cover the slide with DAPI containing fluorine shielding adhesive medium. Randomly select representative images from each group. Fluorescence signal detection was performed using Leica confocal laser scanning microscope (Leica SP8).

[5] = system: ATF2 localization and PRKCD/VE‐cadherin axis in HUVECs; assay: ALK14 versus myristic acid, ATF2 localization and PRKCD/VE-cadherin axis; format: cell-based; conditions: each 10 μg/ml, 12 hours
Method: Protein samples were separated by SDS/PAGE and transferred to the PVDF membrane. The membrane was blocked with 5% BSA in TBST (25 mM Tris, pH 7.4, 150 mM NaCl, 0.1% Tween‐20), incubated with primary antibodies and secondary antibodies in TBST, and then treated with ECL Plus western blotting detection reagents (Bio‐rad). The chemiluminescence signal was analyzed by ChemiDoc imaging system (Bio‐rad).
HMEC‐1, obtained from Shanghai Zhong Qiao Xin Zhou Biotechnology, was cultured in MCDB131 medium containing 10% foetal bovine serum (FBS) and 1% antibiotics (penicillin and streptomycin) in 5% CO2 incubator at 37 °C. HUVEC, obtained from Shanghai Zhong Qiao Xin Zhou Biotechnology, were cultured in ECM medium containing 5% FBS, 1% antibiotics (penicillin and streptomycin) and 1% endothelial cell growth supplement (ECGS) in 5% CO2 incubator at 37 °C. HEK 293T were obtained from ATCC, and cultured in Dulbecco's modified Eagle's medium (DM EM) containing 10% FBS and 1% antibiotics (penicillin and streptomycin) in 5% CO2 incubator at 37 °C. The SIRT6 KO 293T cells were constructed by Hanbio Biotechnology, the SIRT6 gRNA was 5′‐[…]‐3′. SIRT6 overexpression and knockdown recombinant lentivirus were constructed by Hanbio Biotechnology, the vector pGLV3‐harboring SIRT6 and SIRT6 shRNA (5′‐[…]‐3′) were used for lentivirus packaging. […]

[6] = system: B‐H3K9^Myr‐5R; assay: Demyristoylase activity by HPLC; format: biochemical; conditions: UV 220 nm, 6 µM enzyme, 450 µM peptide, Tris‐HCl pH 8.0, 6 mM MgCl2, 1 mM NAD^+, 30 °C, 4 h
Method: (§4) The expression plasmids were transformed in the E.coli Arctic Express (DE3) cells, respectively. The E.coli cells were cultured at 37 °C in 2X YT culture medium. When OD600 reached 0.8, cells were induced by 0.2 mM isopropyl‐1‐thio‐β‐D‐galactopyranoside (IPTG) for 18–20 h at 16 °C. Then, cells were harvested by centrifugation at 6000 rpm for 10min at 4 °C and resuspended in lysis buffer (20 mM Tris‐HCl pH 7.2, 500 mM NaCl, 2% glycerol). Cells were lysed by a high‐pressure homogenizer (Avestin), and centrifuged at 15 000 rpm for […] min at 4 °C. The supernatants were incubated with Ni^+ Sepharose (GE Healthcare) which was pre‐equilibrated in lysis buffer. The resin was washed with 20 column volumes of lysis buffer supplemented with 50 mM imidazole, and then the recombinant proteins were eluted with lysis buffer supplemented with 500 mM imidazole. The eluted fractions were pooled, buffer exchanged (20 mM Tris‐HCl pH 7.2, 250 mM NaCl, 10% glycerol), and concentrated. Finally, the endotoxin was removed by the Pierce High‐Capacity Endotoxin Removal Spin Columns. The purified proteins were stored at −80 °C.
(§5) The peptides B‐H3K9‐5R (biotin‐[…]), B‐H3K9^Ac‐5R (biotin‐KQTARK^Ac[…]), and B‐H3K9^Myr‐5R (biotin‐KQTARK^Myr[…]) were synthesized. Five arginine residues were added to ensure that the peptides were soluble in water. SIRT6 protein SIRT6 and mutants (6 µM) were incubated with the peptides (450 µM) in the reaction system ([…] Tris‐HCl pH 8.0, 6 mM MgCl2, 1 mM NAD^+) at 30 °C. After 4 h, the reactions were terminated by adding 4% TFA at 37 °C for 10 min. After centrifuging at 12 000rpm for 15 min at room temperature, the supernatants were collected and analyzed via HPLC using an Aeris peptide XB‐C18 column (150 × 4.6 mm, 3.6 µm; Phenomenex, USA). The mobile phase consisted of solvent A (0.1% TFA in HPLC‐grade H2O) and solvent B (0.1% TFA in HPLC‐grade acetonitrile). Peptides were eluted in a linear gradient of 0–90% solvent B at 1 ml min^−1 over 19 min. The column temperature was set at 25 °C, and the peptides were monitored with UV light (220 nm).

[7] = system: B‐H3K9^Ac‐5R; assay: Deacetylase activity by HPLC; format: biochemical; conditions: UV 220 nm, 6 µM enzyme, 450 µM peptide, Tris‐HCl pH 8.0, 6 mM MgCl2, 1 mM NAD^+, 30 °C, 4 h
Method: as §4, §5

[8] = target: T3, SIRT6 H133Y (dSIRT6) (Homo sapiens, UniProt Q8N6T7, H133Y); assay: Co-immunoprecipitation enrichment of myristoylated peptide; format: binding; conditions: Co-IP with negative control peptide, n=3
T3 construct: the full‐length human SIRT6 (1‐355aa) with the flag tag at the C‐terminus; made in house; host or cells: E. coli ArcticExpress (DE3), pET28a
Method: SIRT6/mutants (10 µM) were incubated with B‐H3K9^Myr‐5R or B‐H3K9‐5R (7 µM) in different IP buffers based on buffer (1X PBS, 0.2% tween‐20) at 30 °C for 4h. Then the mixtures were incubated with magnetic flag‐beads at room temperature for 2h. Then, tubes were placed on a magnetic rack for 1 minute, and the supernatants were discarded. The beads were washed three times with an IP buffer and eluted with different elution buffers. The eluants and beads were then analyzed by western blotting with biotin monoclonal antibody or SIRT6 antibody.

T1 sequence (Q8N6T7 whole entry): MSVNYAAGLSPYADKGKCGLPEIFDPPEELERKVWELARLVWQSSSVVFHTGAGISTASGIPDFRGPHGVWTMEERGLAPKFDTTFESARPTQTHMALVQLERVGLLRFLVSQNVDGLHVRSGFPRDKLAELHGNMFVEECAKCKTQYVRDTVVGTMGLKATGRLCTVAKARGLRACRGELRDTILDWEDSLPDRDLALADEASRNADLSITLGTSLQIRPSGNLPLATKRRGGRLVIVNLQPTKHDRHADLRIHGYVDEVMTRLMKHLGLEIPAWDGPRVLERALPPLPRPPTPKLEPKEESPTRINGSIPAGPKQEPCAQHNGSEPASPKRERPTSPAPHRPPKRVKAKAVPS
T3 sequence (Q8N6T7 whole entry H133Y): as the sequence (Q8N6T7 whole entry) above, with H133Y counted along it
T2 sequence (Q8N6T7 whole entry G60A): as the sequence (Q8N6T7 whole entry) above, with G60A counted along it

| Compound | demyristoylase activity [6] | deacetylase activity [7] | also measured |
| --- | --- | --- | --- |
| CN1CCN(c2ccc([N+](=O)[O-])c(N)c2)CC1 [5‐(4‐methylpiperazin‐1‐yl)‐2‐nitroaniline] | – | – | IC50 ([1]; ref [65]): 4.93 µM |
| Nc1ncnc2c1ncn2[C@@H]1O[C@H](COP(=O)(O)OP(=O)(O)O)[C@@H](O)[C@H]1O [ADP] | – | – | effect of cofactor on SIRT6 affinity for B‐H3K9^Myr‐5R [2]: significantly enhanced SIRT6 affinity |
| Nc1ncnc2c1ncn2[C@@H]1O[C@H](COP(=O)(O)OP(=O)(O)OP(=O)(O)O)[C@@H](O)[C@H]1O [ATP] | – | – | effect of cofactor on SIRT6 affinity for B‐H3K9^Myr‐5R [2]: significantly enhanced SIRT6 affinity |
| CCCCCCCCCCCCCC(=O)NCCCC[C@H](NC(=O)[C@H](CCCNC(=N)N)NC(=O)[C@H](C)NC(=O)[C@@H](NC(=O)[C@H](CCC(N)=O)NC(=O)[C@H](CCCCN)NC(=O)CCCC[C@@H]1SC[C@@H]2NC(=O)N[C@@H]21)[C@@H](C)O)C(=O)N[C@@H](CO)C(=O)N[C@H](C(=O)NCC(=O)NCC(=O)N[C@@H](CCCCN)C(=O)N[C@@H](C)C(=O)N[C@@H](CCCNC(=N)N)C(=O)N[C@@H](CCCNC(=N)N)C(=O)N[C@@H](CCCNC(=N)N)C(=O)N[C@@H](CCCNC(=N)N)C(=O)N[C@@H](CCCNC(=N)N)C(=O)O)[C@@H](C)O [B‐H3K9^Myr‐5R] (Biotin-KQTARK(Myristoyl)STGGKARRRRR-OH) | – | – | Kd [3]: 1.3 ± 0.11 µM |
| Cc1nn(C)c(C)c1NS(=O)(=O)c1c(Cl)cc(-c2ccnc(N3CCNCC3)c2)cc1Cl [DDD85646] | – | – | therapeutic efficacy ([4]; 100 mg kg^−1 day^−1, n = 6–8): suboptimal therapeutic efficacy |
| NC(=O)c1ccc[n+]([C@@H]2O[C@H](COP(=O)([O-])O)[C@@H](O)[C@H]2O)c1 [NMN] | – | – | endothelial damage induced by high‐fat diet in SIRT6‐deficient endothelium ([4]; NMN 100 mg kg^−1 day^−1, n = 6–8): partially rescued endothelial damage |
| O=C(Nc1ccc(O)c(C(=O)O)c1)c1cccc(NC(=O)c2ccco2)c1 [OSS‐128167] | – | – | IC50 ([1]; ref [68]): 89 µM |
| CCCCCCCCCCCCCC(=O)O [natural myristic acid, Myristic acid] | – | – | impact on ATF2 localization and PRKCD/VE‐cadherin axis, myristic acid versus ALK14 [5]: equivalent impacts |
| Diquercetin | – | – | IC50 ([1]; ref [64]): 130 µM |
| G60A: SIRT6 G60A mutant | strong demyristoylase activity | without detectable deacetylase activity | – |
| H133Y: SIRT6 H133Y mutant | lacked both enzymatic activities | lacked both enzymatic activities | selectivity of H133Y for myristoylated peptide [8]: confirmed the selectivity |
| R65A: SIRT6 R65A mutant | lacked demyristoylase activity | weak deacetylase activity | – |
| S56Y: SIRT6 S56Y mutant | lacked both enzymatic activities | lacked both enzymatic activities | – |
| SIRT6 WT: full‐length human SIRT6 (1‐355aa) with the flag tag at the C‐terminus, expressed in E.coli | significant demyristoylase activity | weak deacetylase activity | – |
